Assay results taken from patent publication US20190153108A1 (AbbVie / Abbott, published 2019).
Where a chain is given by its changes, count along the chain named.

B1: AbK-ZT (antibody, V domains shown)
VH: EVQLQESGPGLVKPSQTLSLTCTVSGYSISRDFAWNWIRQPPGKGLEWMGYISYNGNTRYQPSLKSRITISRDTSKNQFFLKLNSVTAADTATYYCVTASRGFPWWGQGTLVTVSS
VL: DIQMTQSPSSMSVSVGDRVTITCHSSQDITYNVGWLQQKPGKSFKGLIYHGSNLDHGVPSRFSGSGSGTDYTLTISSLQPEDFATYYCVQYDDFPWTFGGGTKLEIKR
modifications: synthon ZT on reduced interchain Cys
B2: AbA-AAD (antibody, V domains shown)
VH: B1 VH with W105Y
VL: B1 VL with T30N, Y31S, V33I, S52T, H56D, D92A, D93Q
modifications: synthon AAD on reduced interchain Cys
B3: AbK-ZZ (antibody, V domains shown)
VH: B1 VH
VL: B1 VL
modifications: synthon ZZ on reduced interchain Cys
B4: AbK-XW (antibody, V domains shown)
VH: B1 VH
VL: B1 VL
modifications: synthon XW on reduced interchain Cys
B5: AbK-SE (antibody, V domains shown)
VH: B1 VH
VL: B1 VL
modifications: synthon SE on reduced interchain Cys
B6: AbK-SR (antibody, V domains shown)
VH: B1 VH
VL: B1 VL
modifications: synthon SR on reduced interchain Cys
B7: AbK-YG (antibody, V domains shown)
VH: B1 VH
VL: B1 VL
modifications: synthon YG on reduced interchain Cys
B8: AbK-KZ (antibody, V domains shown)
VH: B1 VH
VL: B1 VL
modifications: synthon KZ on reduced interchain Cys
B9: AbB-CZ (antibody, V domains shown)
VH: B1 VH with R31N, N55K
VL: B1 VL with T30N, Y31S, V33I, S52T, H56D, D92A, D93Q
modifications: synthon CZ on reduced interchain Cys
B10: AbB-TX (antibody, V domains shown)
VH: B1 VH with R31N, N55K
VL: B1 VL with T30N, Y31S, V33I, S52T, H56D, D92A, D93Q
modifications: synthon TX on reduced interchain Cys
B11: AbB-TV (antibody, V domains shown)
VH: B1 VH with R31N, N55K
VL: B1 VL with T30N, Y31S, V33I, S52T, H56D, D92A, D93Q
modifications: synthon TV on reduced interchain Cys
B12: AbB-YY (antibody, V domains shown)
VH: B1 VH with R31N, N55K
VL: B1 VL with T30N, Y31S, V33I, S52T, H56D, D92A, D93Q
modifications: synthon YY on reduced interchain Cys
B13: AbB-AAD (antibody, V domains shown)
VH: B1 VH with R31N, N55K
VL: B1 VL with T30N, Y31S, V33I, S52T, H56D, D92A, D93Q
modifications: synthon AAD on reduced interchain Cys
B14: AbG-CZ (antibody, V domains shown)
VH: B1 VH with R31N, P41L, N55K, F103L, W105Y
VL: B1 VL with V33I, S52A, H56D, D93E
modifications: synthon CZ on reduced interchain Cys
B15: AbG-TX (antibody, V domains shown)
VH: B1 VH with R31N, P41L, N55K, F103L, W105Y
VL: B1 VL with V33I, S52A, H56D, D93E
modifications: synthon TX on reduced interchain Cys
B16: AbA-TX (antibody, V domains shown)
VH: B1 VH with W105Y
VL: B1 VL with T30N, Y31S, V33I, S52T, H56D, D92A, D93Q
modifications: synthon TX on reduced interchain Cys
B17: AbG-TV (antibody, V domains shown)
VH: B1 VH with R31N, P41L, N55K, F103L, W105Y
VL: B1 VL with V33I, S52A, H56D, D93E
modifications: synthon TV on reduced interchain Cys
B18: AbG-YY (antibody, V domains shown)
VH: B1 VH with R31N, P41L, N55K, F103L, W105Y
VL: B1 VL with V33I, S52A, H56D, D93E
modifications: synthon YY on reduced interchain Cys

Target: human Epidermal Growth Factor Receptor (huEGFR) over-expressed in mcl-1-/- mouse embryonic fibroblasts (human, UniProt P00533 25-1210)
Test: cell-based or functional assay

Binder | huEGFR^+ mcl-1^-/- MEF EC50
B1 | 0.2 nM
B2 | 65 nM
B3 | 45 nM
B4 | 0.6 nM
B5 | 161 nM
B6 | 8.9 nM
B7 | 37 nM
B8 | 224 nM
B9 | 5.9 nM
B10 | 11 nM
B11 | 2.4 nM
B12 | 51 nM
B13 | 4.6 nM
B14 | 3.4 nM
B15 | 5.3 nM
B16 | 16 nM
B17 | 2.6 nM
B18 | > 500 nM
